B1: TRIB1 (parent)
chain: EIGTSDQIVPEYQEDSDISSFFC
B2: FCHO1 (parent)
chain: DKLALCHLELTRKLQDLIKDVLRY

Variants of: B1
Assay: protein stability index of a GFP-peptide fusion (GPS, HEK-293T) (PSI 1-6); higher = more stable
Details: c terminus: native
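Further: lentivirally expressed fusions sorted by FACS into six bins by GFP to DsRed ratio, PSI derived from sequencing read proportions per bin multiplied by bin number.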

Protein stability index, by site and new letter:
C23: Y 2.26; W 1.95; V 2.77

Variants of: B2
Assay: as above
Details: c terminus: a fixed tail appended

Protein stability index: each site, then its substitutions
R23: P 1.2; C 3.57; I 1.47; D 2.08
I18: A 2.71; Q 1.73; R 2.76; N 2.4; F 3.1; S 2.6; E 3.6; P 2.11; T 2.02
L5: E 1.62; S 3.18; H 2.98
K2: P 1.39; C 3.86; L 2.64; M 3.83; E 2.28; A 1.43
C6: V 2.53; P 2.37; R 2.52; A 2.64; D 1.15; W 2.01; S 3.13; E 2.04
K19: H 2.18; C 2.7; Y 2.43; N 2.69; F 1.66; M 2.52
H7: C 2.12; N 3.01; M 2.67; I 1.49; L 1.56; A 1.84; F 2.4
D1: N 4.01; R 3.61; Y 2.63; W 1.41; E 2.15; G 5.1; V 3.12
K13: Y 2.74; S 1.98; V 3.38; T 3.29; A 1.46; R 2.23; I 1.15
L17: D 2.06; E 2.04; H 2.06; V 2.4; G 3.64; N 2.13; R 2.12; S 2.04; P 3.05; Y 3.59; T 2.71
L8: W 2; I 1.79; K 2.72; D 2.63; H 3.96; G 2.92
R12: W 2.44; H 2.98; T 1.94; D 2.92; M 1.99
E9: I 2.67; S 1.77; W 2.73; K 3.04; H 2.19; P 3.31; G 2.87; F 2.62; V 4.2
L22: G 1.68; M 2.35; P 3.16; A 2.73; N 1.47; S 2.44; E 2.67
D20: I 2.16; F 1.87; L 2.19; W 2.4; K 1.71
L10: S 1.93; T 2.14; C 2.22; G 1.86; D 2.09; P 1.69; A 2.75; Q 3.04; Y 1.76; V 3
V21: N 2.02; R 2; S 1.83; P 2.13; G 2.84; T 2.53; E 2.24; F 2.25; I 2.97
A4: W 3.22; I 3.21; S 1.81; L 1.98; Q 3.43
D16: P 2.15; C 3.11; F 2.36; M 2.46; V 2.92
T11: Y 2.57; C 3.34; Q 2.8; F 3.07; S 2.25; P 1.51; N 1.26
Y24: G 2.98; T 2.26; C 2.92; S 1.04
L14: F 1.12; Y 1.49; D 3.23; K 1.95; G 1.53; P 2.99; E 2.3; H 1.88; C 3.78; S 2.13
L3: N 2.25; V 3.04; H 2.12; D 2.09; K 2.23; C 2.51; S 1.79; T 1.81
Q15: S 4.09; D 2.48; R 2.88; Y 2.79; L 3.4; W 2.34
